{"source": "paper PMC8871475", "about": "“An Antibody-Aptamer-Hybrid Lateral Flow Assay for Detection of CXCL9 in Antibody-Mediated Rejection after Kidney Transplantation”", "binders": {"B1": {"name": "AuNP-G123 (ssDNA)", "DNA": "CACGACGCAAGGGACCACAGGGAGGGAGGGTGGGCAAAGGGCCCTAAGTCCGTAACAAAAACACAGCACGACACCGCAGAGGCA", "modifications": "5' C6-disulfide linker and hexaethylene glycol spacer"}}, "molecular_target": "T1, CXCL9 (CXC-motif chemokine ligand 9) (UniProt Q07325 23-125)", "T1 sequence": "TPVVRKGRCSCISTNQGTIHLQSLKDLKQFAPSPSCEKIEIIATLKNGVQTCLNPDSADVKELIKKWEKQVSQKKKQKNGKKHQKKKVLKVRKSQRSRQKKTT", "test": "lateral flow assay (antibody-aptamer sandwich); capture antibody A in test zone; LOD 10 pg/mL CXCL9 in binding buffer, 45 min; LFA binding buffer (PBS-based, urine-like): 138 mM NaCl, 5 mM KCl, 8.1 mM Na2HPO4, 1.5 mM KH2PO4, 1 mM MgCl2, 1 mM CaCl2, 170 mM urea, 7 mM ammonium acetate, 0.25% BSA, 0.1 mg/mL salmon sperm DNA, pH 6.5; temperature not stated; Kd conditions not given", "settings": "protein: commercial; label: gold nanoparticle (5')"}
{"binder": "B1", "values": [{"measurement": "binding result", "result": "binds"}]}
